T1: KQTSV peptide
T1 chain: KQTSV

T2: KQTSV peptide (tandem dimer of PDZ3)
T2 chain: KQTSV

B1: PDZ3 PDZ3 (protein)
chain: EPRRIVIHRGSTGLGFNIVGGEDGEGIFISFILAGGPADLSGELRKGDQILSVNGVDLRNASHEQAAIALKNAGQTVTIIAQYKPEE
B2: 2xPDZ3 (two tandem repeats of PDZ3) PDZ3 (protein)
chain: B1 chain

Assays:
[1] = biological target: T1, KQTSV peptide; assay: diffusion lag time measurement with labeled peptide (Figure S12)
[2] = biological target: T2, KQTSV peptide; assay: as above

Binder | Kd [1] [nM] | Kd [2] [nM]
B1 | 670 | –
B2 | – | 680

Source: article PMC10683072 (2023)
